Test results taken from patent US20160146786A1, “Method of monitoring cellular trafficking of peptides” (PHYLOGICA LIMITED, priority 2013, published 2016).

Legend:
[1] = CD spectrophotometry of FITC-labelled peptides; assay type: physicochemical
[2] = tested on: HEK-293 cells expressing GFP 11+GFP 1-10 fragments; test: Effect of cargo peptides on reconstitution of split GFP activity, transfected constructs (FIG. 17); assay type: cell-based, human; details: peptide fused to Sumo-GFP 11, expressed from transiently transfected constructs; independent of uptake
Source text: FIG. 17 is a graphical representation showing the effect of cargo proteins on reconstitution of split GFP activity in isolated HEK-293 cells expressing GFP 11+GFP 1-10 fragments. HEK-293 cells transfected with GFP 1-10 vectors pcDNA4/TO vector [TO hGFP1-10(a)] or pcDNA4/HM vector [HM hGFP1-10(a)] are shown on the abscissa. Relative fluorescence for each GFP 11 construct added to the cells, normalized for activity in the presence of the MyD88_S11 and mGFP1-10 constructs, is indicated on the y-axis. The GFP 11 constructs lacking cargo peptides were: MyD88-GFP 11 fusion (MyD88_S11); Mal-GFP 11 fusion (Mal_S11), β-actin-GFP 11 fusion β-actin_S11), and Sumo-GFP 11 fusion (Sumo_S11). […]
The inventors have also considered the effect of cargo protein on reconstitution of split GFP activity in isolated HEK-293 cells expressing GFP 11+GFP 1-10 fragments. HEK-293 cells were transfected with GFP 1-10 vectors pcDNA4/TO vector [TO hGFP1-10(a)] or pcDNA4/HM vector [HM hGFP1-10(a)], and recombinant GFP 11-encoding constructs were added to the cells, and fluorescence activity was determined as a normalized value relative to fluorescence obtained for transfections employing MyD88-GFP11 and mGFP1-10 constructs. […]

[3] = target: hGFP1-10(a) (humanized variant of commercially-available mGFP1-10, 'A' variant, expressed from pcDNA4/TO or pcDNA4/HM); test: cell-based or functional assay
[4] = tested on: endosome; details: Sugita et al. 2008; cited from earlier work

Substance: C20_ABH_0304_1746: identified CPP, 38 aa; Transposase fragment [Bordetella pertussis] (PLKPKKPKTQEKKKKQPPKPKKPKTQEKKKKQPPKPKR)
- CD spectral analysis, conformation ([1]; NaF Buffer pH 7.2): Strong Beta-turn
- CD spectral analysis, conformation ([1]; SDS Micelles pH 7.2): Strong Beta-turn

Substance: PYC35: cargo protein, which is not a CPP (RSDYKDDDDKAYQSIRSGGIESSSKRER)
- Decrease of Sumo_S11 fluorescence (reconstitution of split GFP activity) [2]: no-effect

Substance: T08_HBM_0104_0084: identified CPP, 33 aa (RKQKSLQTKLAENPPVPRKKRQSRPRWKQWLQK)
- CD spectral analysis, conformation ([1]; NaF Buffer pH 7.2): Partially helical
- CD spectral analysis, conformation ([1]; SDS Micelles pH 4.5): Helical
- CD spectral analysis, conformation ([1]; SDS Micelles pH 7.2): Helical

Substance: T09_HBM_0103_0167: identified CPP, 32 aa (PSSTPATNVARPRLNPIRGHKFALAVPNSRTR)
- CD spectral analysis, conformation ([1]; NaF Buffer pH 4.5): Random coil
- CD spectral analysis, conformation ([1]; NaF Buffer pH 7.2): Coil with Beta-turn
- CD spectral analysis, conformation ([1]; SDS Micelles pH 4.5): Random coil
- CD spectral analysis, conformation ([1]; SDS Micelles pH 7.2): Coil with Beta-turn

Substance: TAT-Sumo-GFP 11 fusion
- decrease of GFP fluorescence (split GFP reconstitution) relative to Sumo S11 in transiently transfected HEK-293 cells [3]: > 50%

Substance: transferrin: named in cited endosome escape study
- Efficiency of endosome escape [4]: low
